Patent US20120157824

Tests used:
[1] = tested on: T1, GAGSGRSAGA oligopeptide sequence (SEQ ID NO: 66, deleted at the N-terminus by 1 residue and the C-terminus by 2 residues) linking Fe/Fe3O4/ASOX/stealth-nanoparticles into oligomers
T1 sequence: GAGSGRSAGA

[2] = tested on: T2, GAGSGRSAGAG linkage (SEQ ID NO: 66, deleted by 1 residue at each of the N-terminus and C-terminus) between nanoparticle and non-metalated TCPP
T2 sequence: GAGSGRSAGAG

[3] = tested on: T3, cleavage sequence DGGGSGRSAGGGD (SEQ ID NO: 65) coupled to TCPP and to stealth-coated Fe/Fe3O4 nanoparticles
T3 sequence: DGGGSGRSAGGGD

[4] = tested on: T4, cleavage sequence for urokinase DGAGSGRSAGAGD (SEQ ID NO: 66) linking porphyrin-labeled stealth coated Fe/Fe3O4 nanoparticles
T4 sequence: DGAGSGRSAGAGD

[5] = tested on: oligopeptide linker containing the urokinase-specific cleavage sequence SGRSA (SEQ ID NO: 2)
[6] = tested on: urokinase consensus sequence linker DGGSGRSAGGGC (SEQ ID NO: 68) linking Fe/Fe3O4 nanoplatforms

urokinase in rat urine, sequence (chain, as listed by the source): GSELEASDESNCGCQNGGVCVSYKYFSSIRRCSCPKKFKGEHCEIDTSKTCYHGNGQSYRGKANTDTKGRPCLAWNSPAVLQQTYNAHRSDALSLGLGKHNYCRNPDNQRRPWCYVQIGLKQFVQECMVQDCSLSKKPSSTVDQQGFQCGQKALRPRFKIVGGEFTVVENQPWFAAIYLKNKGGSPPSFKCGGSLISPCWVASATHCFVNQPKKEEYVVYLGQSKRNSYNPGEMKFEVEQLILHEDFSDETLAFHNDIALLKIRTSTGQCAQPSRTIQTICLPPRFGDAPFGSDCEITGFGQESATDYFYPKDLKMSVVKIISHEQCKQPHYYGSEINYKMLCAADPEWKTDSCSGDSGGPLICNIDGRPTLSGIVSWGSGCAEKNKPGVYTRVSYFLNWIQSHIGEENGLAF
urokinase in canine urine, sequence (chain, as listed by the source): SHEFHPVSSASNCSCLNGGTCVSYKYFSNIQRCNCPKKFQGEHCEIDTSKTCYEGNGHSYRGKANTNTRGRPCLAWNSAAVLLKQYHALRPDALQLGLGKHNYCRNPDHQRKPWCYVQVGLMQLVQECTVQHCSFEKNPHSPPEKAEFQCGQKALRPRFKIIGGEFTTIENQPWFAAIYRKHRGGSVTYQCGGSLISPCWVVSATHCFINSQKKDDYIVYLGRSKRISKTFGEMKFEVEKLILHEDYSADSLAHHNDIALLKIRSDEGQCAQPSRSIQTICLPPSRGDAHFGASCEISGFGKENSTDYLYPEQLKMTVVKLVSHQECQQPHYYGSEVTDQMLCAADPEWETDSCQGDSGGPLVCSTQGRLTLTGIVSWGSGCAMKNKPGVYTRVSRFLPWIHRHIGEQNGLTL

urokinase (Sigma Aldrich, St. Louis, Mo.)
T1 of H2O 10 minutes after adding 1×10^-14 mol urokinase per ml (3.004 seconds before) [1]: After 10 minutes, T1 had decreased to 2.003 seconds
T2 of H2O 10 minutes after adding 1×10^-14 mol urokinase per ml (0.07579 seconds before) [1]: T2 had increased to 0.1334 seconds
fluorescence lifetime τ1, Fe/Fe3O4-linkage-TCPP plus urokinase (1×10^-7 M) [2]: 1.39 ns
fluorescence lifetime τ1, Fe/Fe3O4/ASOX/Au-linkage-TCPP plus urokinase (1×10^-7 M) [2]: 1.47 ns
fluorescence lifetime τ2, Fe/Fe3O4-linkage-TCPP plus urokinase (1×10^-7 M) [2]: 30 ns
fluorescence lifetime τ2, Fe/Fe3O4/ASOX/Au-linkage-TCPP plus urokinase (1×10^-7 M) [2]: 29.3 ns
overall fluorescence enhancement, 10 min. after urokinase was added [2]: The overall fluorescence enhancement of this system was approx. 75 (10 min. after urokinase was added)
relative contribution f1, Fe/Fe3O4-linkage-TCPP plus urokinase (1×10^-7 M) [2]: 78
relative contribution f1, Fe/Fe3O4/ASOX/Au-linkage-TCPP plus urokinase (1×10^-7 M) [2]: 80
relative contribution f2, Fe/Fe3O4-linkage-TCPP plus urokinase (1×10^-7 M) [2]: 22
relative contribution f2, Fe/Fe3O4/ASOX/Au-linkage-TCPP plus urokinase (1×10^-7 M) [2]: 20
optical extinction (absorption + scattering) over 40 min, urokinase 1×10^-10 M [3]: the observable change of the extinction is caused by the change in scattering once the oligopeptide-tether is cleaved by the enzyme
signal intensity at 440 nm divided by signal intensity at 600 nm vs. time [3]: a linear slope has been obtained
r2/r1 (MRI relaxivity ratio) at t = 0 min [4]: -27.6
r2/r1 (MRI relaxivity ratio) at t = 5 min [4]: -21.9
r2/r1 (MRI relaxivity ratio) at t = 10 min [4]: -19.6
r2/r1 (MRI relaxivity ratio) at t = 15 min [4]: -16.8
r2/r1 (MRI relaxivity ratio) at t = 20 min [4]: -16.5
r2/r1 (MRI relaxivity ratio) at t = 25 min [4]: -15.8
r2/r1 (MRI relaxivity ratio) at t = 30 min [4]: -15.3
r2/r1 (MRI relaxivity ratio) at t = 40 min [4]: -14.8
r2/r1 (MRI relaxivity ratio) at t = 50 min [4]: -14.1
r2/r1 (MRI relaxivity ratio) at t = 60 min [4]: -13.5
T1 relaxivity r1 after protease cleavage of the linker [5]: r1 increased slightly to 180±20 mM s^-1
T2 relaxivity r2 after protease cleavage of the linker [5]: r2 increased to -2,350±250 mM s^-1

urokinase in canine urine
fluorescence enhancement over time, Sample B (dog undergoing chemotherapy) [5]: had a detectable enhancement in fluorescence than the control (Sample A), but was still much lower than Sample C
fluorescence enhancement over time, Sample C (dog just diagnosed with cancer) [5]: showed a rapid increase in fluorescence

urokinase in rat urine
luminescence of TCPP released from the nanoplatform, 36 day urine [5]: the luminescence from TCPP increased steadily over time for the 36 day urine
luminescence of TCPP released from the nanoplatform, control (5 day urine) [5]: The control (5 day urine) did not demonstrate a significant increase in luminescence
UV/Vis backscattering spectrum of the nanoparticle-dimer over 120 minutes, rat urine (estimated urokinase 5×10^-10 M) [6]: The change in the optical properties is clearly discernible upon the cleavage of the oligopeptides-linker by urokinase
